Results on 1 molecule are retold here after paper PMC13674618, “Electropolymerized Aptasensor for Femtogram‐Level Cytokine Detection”.

The target of one data set is Interleukin-6 (IL-6) (UniProt P05231 30-212). The experiment in a line: FO-SPR; aptamer immobilized on pALT5c film; 100 fg/mL to 1 ug/mL IL-6 in PBS; no response without aptamer; PBS (immobilization and rinse PBS pH 7.4); FO-SPR 10 min per concentration step; aptamer folded 95 C 5 min, ice 15 min, RT 5 min; assay temperature not stated. The following applies: label: none.
Sequence of Interleukin-6 (IL-6) (P05231 30-212): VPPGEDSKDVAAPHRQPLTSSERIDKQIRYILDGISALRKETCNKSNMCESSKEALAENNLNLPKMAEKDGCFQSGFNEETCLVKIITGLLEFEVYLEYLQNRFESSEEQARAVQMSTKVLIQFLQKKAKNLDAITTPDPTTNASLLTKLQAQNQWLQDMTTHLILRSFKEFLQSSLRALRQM

Data set [1] addresses Tumour necrosis factor-alpha (TNF-alpha) (Homo sapiens, UniProt P01375 77-233). The experiment in a line: OECT gate-voltage shift; negligible, non-monotonic shifts over the tested range; Kelvin probe in agreement; PBS (immobilization and rinse PBS pH 7.4); FO-SPR 10 min per concentration step; aptamer folded 95 C 5 min, ice 15 min, RT 5 min; assay temperature not stated. The settings on record: protein: recombinant; chain copies: 3; label: none.

Sequence of Tumour necrosis factor-alpha (TNF-alpha) (P01375 77-233): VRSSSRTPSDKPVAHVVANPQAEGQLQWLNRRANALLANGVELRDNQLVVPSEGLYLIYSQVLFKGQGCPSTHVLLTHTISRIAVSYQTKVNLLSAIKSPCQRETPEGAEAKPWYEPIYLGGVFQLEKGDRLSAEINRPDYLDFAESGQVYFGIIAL

On to CTTCCAACGCTCGTATTGTCAGTCTTTAGT (ssDNA, 5'-AminoC6) [IL-6 specific aptamer (Apt)], for which the values for the binding result (with Interleukin-6 (IL-6); in data set [1]) were “binds” and “no binding”, respectively.
